Measurements as given in paper PMC8927147 (2022).
Ends that are not written are not given here. * marks the point of attachment. Bz = O=C(c1ccccc1)*

Tests used:
Assay in all cases: ITC
Sas5_(YEATS) = molecular target: T1, Sas5_(YEATS) (S. cerevisiae, UniProt Q99314 2-139)
T1 chain: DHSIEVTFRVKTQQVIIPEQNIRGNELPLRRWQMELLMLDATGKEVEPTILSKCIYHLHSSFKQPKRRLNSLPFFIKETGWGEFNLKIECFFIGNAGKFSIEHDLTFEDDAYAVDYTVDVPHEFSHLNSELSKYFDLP

Taf14_(YEATS) = molecular target: T2, Taf14_(YEATS) (S. cerevisiae, UniProt P35189 2-137)
T2 chain: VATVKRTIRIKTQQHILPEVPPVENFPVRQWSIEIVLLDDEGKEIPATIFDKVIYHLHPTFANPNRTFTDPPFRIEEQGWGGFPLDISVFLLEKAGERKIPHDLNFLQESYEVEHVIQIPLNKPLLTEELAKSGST

Hst2 = Hst2 (S. cerevisiae, UniProt P53686 1-357)
Hst2, sequence (P53686 whole entry): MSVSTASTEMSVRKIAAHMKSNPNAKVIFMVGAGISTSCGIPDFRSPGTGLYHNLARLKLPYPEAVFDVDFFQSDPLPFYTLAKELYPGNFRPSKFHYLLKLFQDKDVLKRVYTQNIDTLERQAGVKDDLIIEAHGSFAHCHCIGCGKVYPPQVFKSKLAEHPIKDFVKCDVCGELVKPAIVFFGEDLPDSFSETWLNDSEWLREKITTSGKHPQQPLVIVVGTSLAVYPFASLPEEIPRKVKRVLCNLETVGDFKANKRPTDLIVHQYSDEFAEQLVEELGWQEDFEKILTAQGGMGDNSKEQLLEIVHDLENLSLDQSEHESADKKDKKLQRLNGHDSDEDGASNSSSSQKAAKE

| Binder | Kd (Sas5_(YEATS)) | Kd (Taf14_(YEATS)) | Kd (Hst2) |
| --- | --- | --- | --- |
| ARTKQTARKSTGGKAPRKQY (benzoyl-lysine (Kbz) at K9) [H3K9bz peptide] | 178 µM |  |  |
| APRKQLASK(Bz)AARKSAPSTY [H3K23bz peptide] | 279 µM | 467 µM | 14.8 µM |
| STGGKAPRKQLASKAARY (benzoyl-lysine (Kbz) at K18) [H3K18bz peptide] | 245 µM | 85.5 µM | 1.74 µM |
| TARKSTGGK(Bz)APRKQLASY [H3K14bz peptide] | 100 µM | 385 µM | 13.2 µM |
| KQLASKAARK(Bz)SAPSTGGVKY [H3K27bz peptide] | 92.6 µM | 136 µM | 6.13 µM |
